{"source": "patent US8597509B2", "about": "“Countercurrent chromatography rotor” (CC Biotech LLC, priority 2008, dated 2013)"}
{"assay": "Partition coefficient K in two-phase aqueous system PEG (1000) 12.5%-K2HPO4 12.5%", "assay_type": "physicochemical", "settings": "PEG (MW 1000) 12.5%-K2HPO4 12.5% two-phase aqueous solvent system", "source_text": "A determination of the partition coefficient, K, is made by dissolving a small sample into a solvent system, shaking the mixture, and measuring the concentration of the sample in both phases after separation of the phases. That provides the ratio of concentration in the upper to lower phase (Cu/Cl). The phase chosen as the mobile phase is that giving a partition coefficient of 1 to 2. The efficiency of a separation will be determined by use of the conventional gas chromatographic equation: N=(4R/W)^2. The theoretical plates or N is calculated from the shape of the peaks. R is the retention time or volume of the peak maximum and W is the peak width expressed in the same units as R. For preparative separations, the values of N may be up to 1000, but the more important relationship is resolution. Resolution between adjacent peaks is given by: RS=2(VR,2−VR,1)/(W1+W2). Using that equation and substituting each solute retention volume by the following: VR=Vm+KVS. The Vm term cancels giving: RS=2(K2−K1)Vs/(W1+W2).\nThe apparatus of interest can be used to separate proteins or other large molecules. In this example, the spiral tube support was made as described above and used to purify mouse uteroglobin. Mouse uteroglobin has a MW of […] and normally exists as a dimer; but, in solution, a monomeric form of the protein can also accumulate. A separation was made in the spiral tube support to separate uteroglobin monomers from uteroglobin dimers. This was done by measuring the K value using HPLC and then separating the protein using countercurrent chromatography with the spiral tube support apparatus. […] The heights of the peaks representing the monomer at 31.5 min. and dimer at 32.8 min. HPLC retention time, respectively, were measured and the ratios give different values for the concentration in the upper phase over that of the lower phase. The two protein peaks calculated to K values of 4.0 and 6.9 in PEG (1000) 12.5%-K2HPO4 12.5%. The different K values mean that the two species could be separated with one or the other phase mobile. Since the numeric value is over two, the analyte would remain in the coil a long time, ultimately being eluted in approximately four to seven column volumes. Consequently, a run was performed for two column volumes and then the contents of the column were extruded and analyzed.\nIn this example, 31 mg lysozyme (14.4 kDa) and 24 mg myoglobin (17.7 kDa) were mixed and separated using the countercurrent chromatography apparatus and methods of use as claimed. A non-denaturing two-phase aqueous solvent system consisting of 12.5% PEG (MW 1000):12.5% K2HPO4 provides for a polyethylene-rich upper phase and phosphate buffer-rich lower phase. The lower phase was used as the mobile phase at a flow rate of 1 ml/min. […]"}
{"substance": "lysozyme", "K value (concentration in upper phase over lower phase)": 1.35}
{"substance": "myoglobin", "K value (concentration in upper phase over lower phase)": 0.38}
{"substance": "uteroglobin dimer: dimeric form of mouse uteroglobin protein", "K value (concentration in upper phase over lower phase)": 6.9}
{"substance": "uteroglobin monomer: monomeric form of mouse uteroglobin protein", "K value (concentration in upper phase over lower phase)": 4.0}
